Assays:
[1] = biological target: T1, Cynomolgus monkey DLL3 antigen protein (Kactus Biosystems, Cat. No. CM103) (Cynomolgus monkey, UniProt Q9NYJ7 27-490 (human entry)); assay: affinity assay with Cynomolgus monkey DLL3 antigen protein (kinetics; method not restated, Biacore as in Example 18 implied)
T1 construct: also called cyno DLL3
T1 chain: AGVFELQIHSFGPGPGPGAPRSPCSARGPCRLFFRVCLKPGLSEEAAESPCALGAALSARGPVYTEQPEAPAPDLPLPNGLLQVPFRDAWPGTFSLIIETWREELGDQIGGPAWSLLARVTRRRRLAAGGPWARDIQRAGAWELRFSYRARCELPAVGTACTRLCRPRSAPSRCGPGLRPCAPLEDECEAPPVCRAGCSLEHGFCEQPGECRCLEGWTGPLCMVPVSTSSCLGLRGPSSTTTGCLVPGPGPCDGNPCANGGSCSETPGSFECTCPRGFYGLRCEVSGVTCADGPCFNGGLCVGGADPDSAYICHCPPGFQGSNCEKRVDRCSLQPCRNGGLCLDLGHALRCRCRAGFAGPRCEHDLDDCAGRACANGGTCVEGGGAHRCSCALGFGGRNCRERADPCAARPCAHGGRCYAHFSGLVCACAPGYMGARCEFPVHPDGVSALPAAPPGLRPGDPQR

[2] = biological target: T2, human DLL3 antigen protein (Kactus Biosystems, Cat. No. DLL-HM103) (human, UniProt Q9NYJ7 27-492); assay: affinity assay with human DLL3 antigen protein (kinetics; method not restated, Biacore as in Example 18 implied)
T2 sequence: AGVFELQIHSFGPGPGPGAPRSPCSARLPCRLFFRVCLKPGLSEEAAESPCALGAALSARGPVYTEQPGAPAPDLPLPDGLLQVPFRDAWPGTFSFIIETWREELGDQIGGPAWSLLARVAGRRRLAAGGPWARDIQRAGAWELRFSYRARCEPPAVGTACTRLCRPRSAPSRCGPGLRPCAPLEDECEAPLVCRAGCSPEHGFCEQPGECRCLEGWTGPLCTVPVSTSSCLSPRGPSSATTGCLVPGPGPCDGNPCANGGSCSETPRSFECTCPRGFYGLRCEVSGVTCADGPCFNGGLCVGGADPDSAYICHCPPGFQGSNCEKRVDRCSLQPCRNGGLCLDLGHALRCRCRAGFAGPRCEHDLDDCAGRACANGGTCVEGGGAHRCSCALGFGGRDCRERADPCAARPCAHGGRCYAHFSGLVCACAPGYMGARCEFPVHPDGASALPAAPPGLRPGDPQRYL

[3] = biological target: T1, Cynomolgus monkey DLL3 antigen protein …; assay: ELISA, antigen coated at 2 ug/ml, induced supernatant, anti-Myc HRP
Experimental: (§1) In order to obtain a positive antibody that can cross-bind to human DLL3 and Cynomolgus monkey DLL3, the above library was amplified and added to the M13K07 helper phage to assemble phage. 1×10¹² pfu camel immune library phage was added and incubated with biotinylated human DLL3 proteins (8 μg/mL) bound to magnetic beads for 1 h at room temperature. After washing with 0.05% PBST to remove unbound phage, the phage specifically bound to DLL3 was eluted with 100 mM triethylamine. After gradient dilution, log-phase growth of E. coli SS320 was infected and spread on an ampicillin plate overnight at 37° C. A single clone was picked for IPTG-induced expression and the supernatant was used for ELISA detection. The ELISA plate was coated with 2 μg/ml human DLL3 or Cynomolgus monkey DLL3 antigen respectively overnight at 4° C. The plate was washed with 0.05% PBST 3 times, then blocked with 5% skimmed milk for 1 h at room temperature, and washed with 0.05% PBST 3 times. Then 30 μL of induced supernatant was added to each well, and a culture medium was added to a negative control well. The plate was incubated for 1 h at room temperature. Finally, anti-Myc HRP detection was performed (VHH expressed by IPTG induction has his and c-Myc labels). The amino acid sequences of the five heavy chain antibody variable regions of the present disclosure were obtained by sequencing clones from the ELISA assay that bound human and Cynomolgus monkey DLL3 with OD450 values greater than 1.0 and ELISA OD450 ratios greater than 3 to the medium as negative control, with the results shown in Table 1: […]

[4] = biological target: T2, human DLL3 antigen protein (Kactus …); assay: as above
Experimental: as §1

Binder	Kd [1]	koff [1]	kon [1]	Kd [2]	koff [2]	kon [2]	ELISA OD450 ratio to the medium negative control [3]	OD450 [3]	ELISA OD450 ratio to the medium negative control [4]	OD450 [4]
H2-39E2D11-AS humanized antibody variant (antibody, V domains shown, Variant of H2-39E2D11; Its constant regions are not restated) VH: QVQLVQSGAEVKKPGASVKVSCKASGYTFISYWITWVRQAPGQGLEWMGDIYPGSGSTTNYNEKFKSRVTMTRDTSTSTVYMELSSLRSEDTAVYYCARETTVGGAYAMDYWGQGTLVTVSS VL: EIVLTQSPATLSLSPGERATLSCRASQSINNNLHWYQQKPGQAPRLLIKYVSQSISGIPARFSGSGSGTDFTLTISSLEPEDFAVYYCQQTASWPLTFGGGTKLEIK	1630 pM	0.000427 s⁻¹	262000 M⁻¹ s⁻¹	1760 pM	0.000362 s⁻¹	206000 M⁻¹ s⁻¹				
H2-39E2D11-NA humanized antibody variant (antibody, V domains shown, Variant of H2-39E2D11; Its constant regions are not restated) VH: QVQLVQSGAEVKKPGASVKVSCKASGYTFISYWITWVRQAPGQGLEWMGDIYPGSGSTTNYNEKFKSRVTMTRDTSTSTVYMELSSLRSEDTAVYYCARETTVGGAYAMDYWGQGTLVTVSS VL: EIVLTQSPATLSLSPGERATLSCRASQSINNNLHWYQQKPGQAPRLLIKYVSQSISGIPARFSGSGSGTDFTLTISSLEPEDFAVYYCQQTNAWPLTFGGGTKLEIK	346 pM	8.09e-05 s⁻¹	233000 M⁻¹ s⁻¹	484 pM	0.00012 s⁻¹	247000 M⁻¹ s⁻¹				
H2-39E2D11-QS humanized antibody variant (antibody, V domains shown, Variant of H2-39E2D11; Its constant regions are not restated) VH: QVQLVQSGAEVKKPGASVKVSCKASGYTFISYWITWVRQAPGQGLEWMGDIYPGSGSTTNYNEKFKSRVTMTRDTSTSTVYMELSSLRSEDTAVYYCARETTVGGAYAMDYWGQGTLVTVSS VL: EIVLTQSPATLSLSPGERATLSCRASQSINNNLHWYQQKPGQAPRLLIKYVSQSISGIPARFSGSGSGTDFTLTISSLEPEDFAVYYCQQTQSWPLTFGGGTKLEIK	434 pM	8.59e-05 s⁻¹	198000 M⁻¹ s⁻¹	229 pM	3.91e-05 s⁻¹	171000 M⁻¹ s⁻¹				
DLL3-26 VHH (IPTG-induced supernatant, with his and c-Myc labels) (VHH, not shown: his and c-Myc labels) VHH: QVQLVESGGGSVQAGGSLRLSCAASGDIYSSSYVGWFRQAPGKEREGVAIIYTSGDSTYYANSVKGRFTISQDKAKKTLYLQMNSLKPEDTAMYYCAARFAIDNSNYWGQGTQVTVSS							> 3 fold	> 1 OD450	> 3 fold	> 1 OD450
DLL3-3 VHH (IPTG-induced supernatant, with his and c-Myc labels) (VHH, not shown: his and c-Myc labels) VHH: DVQLVESGGGSVQAGGSLKLSCKSPTYTISSGYMGWFRQAPGKEREGVAAIYIGGSTTLYADSVKGRFTISADNAEKTVYLQMNTLKPEDSAMYYCAAQLRPNSAYHPLDGRKYNYWGQGTQVTVSS							> 3 fold	> 1 OD450	> 3 fold	> 1 OD450
DLL3-12 VHH (IPTG-induced supernatant, with his and c-Myc labels) (VHH, not shown: his and c-Myc labels) VHH: QVQLVESGGGLVQPGESLRLSCAGSGFAFSSYDMHWVRQAPGKDFEWVSSISRDGRGPRYADFVKGRFTISKDNGRNMLYLQLNSLEIEDTAMYYCSKGYPIMGGTTQGTQVTVSS							> 3 fold	> 1 OD450	> 3 fold	> 1 OD450
DLL3-276 VHH (IPTG-induced supernatant, with his and c-Myc labels) (VHH, not shown: his and c-Myc labels) VHH: QVQLVESGGGSVQAGGSLNLSCATSGSTASTTYMGWFRQAPGKGREGVAIIYTARDNPWYANSVKGRFIISQDNAKKTLYLQMNTLKPEDTATYYCAATLANPTRTAWGQGTLVTVSS							> 3 fold	> 1 OD450	> 3 fold	> 1 OD450
DLL3-122 VHH (IPTG-induced supernatant, with his and c-Myc labels) (VHH, not shown: his and c-Myc labels) VHH: QVQLVESGGGSVQAGGSLRLSCTASGDTYRSYCMGWFRKAPGKEREGVADIVSDGSTSYADSVKGRFTISKDNAKNTLYLQMNSLKPEDTAMYYCAVDRGGSGGYCYTGRYDYWGQGTQVTVSS							> 3 fold	> 1 OD450	> 3 fold	> 1 OD450
